T1: rat IL-23R extracellular domain (ECD) protein (rat)
T1 construct: also called rat IL-23R ECD; F1LX96 amino acids 24-354
T1 chain: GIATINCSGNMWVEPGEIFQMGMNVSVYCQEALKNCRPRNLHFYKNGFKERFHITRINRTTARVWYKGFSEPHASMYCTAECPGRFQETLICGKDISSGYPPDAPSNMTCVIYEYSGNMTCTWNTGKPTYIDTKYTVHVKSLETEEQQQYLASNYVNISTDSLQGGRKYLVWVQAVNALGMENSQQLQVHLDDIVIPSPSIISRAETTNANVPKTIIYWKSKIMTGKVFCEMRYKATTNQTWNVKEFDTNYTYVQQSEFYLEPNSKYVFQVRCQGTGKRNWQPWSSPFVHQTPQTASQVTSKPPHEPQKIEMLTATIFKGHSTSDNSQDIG

T2: Recombinant human IL-23 receptor (IL-23R) extracellular domain (ECD) protein (human, UniProt Q5VWK5 24-355)
T2 construct: also called human IL-23R ECD; hu IL-23R ECD
T2 sequence: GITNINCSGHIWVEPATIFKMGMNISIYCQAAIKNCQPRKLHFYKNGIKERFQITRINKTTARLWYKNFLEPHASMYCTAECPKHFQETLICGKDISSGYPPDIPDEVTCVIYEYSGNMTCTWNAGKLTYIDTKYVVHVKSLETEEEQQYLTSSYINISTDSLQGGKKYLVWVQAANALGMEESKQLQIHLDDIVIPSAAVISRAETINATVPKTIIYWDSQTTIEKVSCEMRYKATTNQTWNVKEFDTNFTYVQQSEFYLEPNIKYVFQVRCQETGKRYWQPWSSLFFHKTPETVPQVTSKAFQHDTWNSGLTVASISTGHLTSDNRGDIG


Assays:
[1] = target: T1, rat IL-23R extracellular domain (ECD) …; assay: SPR Biacore 8K, supernatant
Procedure, shortened: (§1)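 Kinetics fitted to a 1:1 Langmuir model gave on-rate, off-rate and KD. Human or rat IL-23R ECD flowed over captured mAbs (~150 RU) at 0.8–500 nM, 5-fold dilutions: 3 min binding at 50 μL/min, then 30 min buffer, 25 °C, HBS-P+ plus 100 μg/ml BSA.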

[2] = target: T2, Recombinant human IL-23 receptor …; assay: SPR Biacore 8K, supernatant, analysis 1
Procedure, shortened: as §1

[3] = target: T2, Recombinant human IL-23 receptor …; assay: SPR Biacore 8K, supernatant, analysis 2
Procedure, shortened: as §1

[4] = target: T2, Recombinant human IL-23 receptor …; assay: SPR Biacore 8K, purified, analysis 1
Experimental: (§2) Affinity by SPR using Biacore 8K. Affinity measurements using Surface Plasmon Resonance (SPR) were performed using a Biacore 8K system (Cytiva). […] Approximately 9000-10000 RU (response units) of mAbs were immobilized. The kinetic experiments were performed at 25° C. in running buffer 1× of (HBS-P+ Buffer 10× (Cytiva #BR100671)+100 μg/ml BSA). To perform kinetic experiments, approximately 150 RU of mAbs were captured followed by injections of human IL-23R or rat IL-23R at concentrations ranging from 0.8 nM to 500 nM (in a 5-fold serial dilution). The association phase was monitored for 3 minutes at 50 μL/min, then followed by 30 minutes of buffer flow (dissociation phase). […] The collected data were processed using Biacore insight Evaluation software (Version 3.0.12.15655). The kinetic analysis of the data was performed using a Langmuir 1:1 binding model. The result for each mAb was reported in the format of Ka (On-rate), Kd (Off-rate) and KD (equilibrium dissociation constant).

[5] = target: T2, Recombinant human IL-23 receptor …; assay: SPR Biacore 8K, purified, analysis 2
Experimental: as §2

binding result [1]	Kd [2] [nM]	koff [2] [s⁻¹]	kon [2] [M⁻¹ s⁻¹]	Kd [3] [nM]	koff [3] [s⁻¹]	kon [3] [M⁻¹ s⁻¹]	Kd [4] [nM]	koff [4] [s⁻¹]	kon [4] [M⁻¹ s⁻¹]	Kd [5] [nM]	koff [5] [s⁻¹]	kon [5] [M⁻¹ s⁻¹]	Binder
no binding (tested: 500 nM)	30.6	0.00272	89000	53.3	0.00277	52000							I23RB144 (antibody, mouse IgG2a, kappa, V domains shown, mouse immunization; mouse IgG2a/kappa) VH: EVQLQQSGPELVKPGASVKMSCKASGYTFTSYIIHWVKQKPGQGLEWIGYIDPYNDDTKYNEKFKGKATLTSDKSSSTAYMEFSSLTSEDSAVYYCARLGSINYYDGSYFDYWGQGTSVTVSS VL: DIVMTQSPLTLSVIIGQSASISCKSSQSLLDSDGKTYLNWLLQRPGQSPKRLMYLVSKLDSGVPDRFTGSGSGTDFTLKISRVEAEDLGVYYCWQGIHFPLTFGSGTRLEIKR
no binding (tested: 500 nM)				0.0805	3.9e-05	484000	0.0891	5.62e-05	631000	0.0859	4.14e-05	482000	I23RB76 (antibody, mouse IgG2a, kappa, V domains shown, mouse immunization; mouse IgG2a/kappa) VH: EVQLQQSGPELVKPGASVKMSCKASGYTFTDYYMNWMKQSHGKSLEWIGYISPKNGRTGYNQKFKGKATLTVDKSSTTAYMELRSLTSEDSAVYYCAKSNGYYALDYWGQGTTVTVSS VL: DIVLTQSPATLCVTPGETVSLSCRASQNIYKNLHWFQQKSHRSPRLLIKYASDSISGIPSRFTGSGSGTDYTLSINSVKPEDEGIYYCLQGYSTPWTFGGGTKLEIKR
				0.108	6.29e-05	582000	0.0725	5.76e-05	795000	0.117	6.25e-05	535000	I23RB42 (antibody, mouse IgG2a, kappa, V domains shown, mouse immunization; mouse IgG2a/kappa) VH: EVQLQQSGAELVKPGASVKISCKASGYSFTDYIMNWVKQSHGKSLEWIGNINPYFGFTSYNQEFKGKATLTVDKSSSTAYMLLNSLTSEDSAVYYCSRGSYYGYETFFDYWGQGTTLTVSS VL: DIVLTQTAPSVPVTPGESVSISCRSSKSLLHSNGNTYLYWFLQRPGQSPQLLIYRMSNLASGVPDRFSGSGSGTAFTLRISRVEAEDVGVYYCMQHLEYPYTFGSGTRLEIKR
no binding (tested: 500 nM)				0.11	4.58e-05	416000	< 0.0597	< 2.89e-05	484000	< 0.0723	< 2.89e-05	400000	I23RB65 (antibody, mouse IgG2a, kappa, V domains shown, mouse immunization; mouse IgG2a/kappa) VH: EVQLQQSGPELVKPGASVKISCKASGYTFTDHTMDWVKQSHGKSLEWIGYIYPKSGNAAYSQKFKSEATLTVDKSSSTAYMEFHSLTSEDSAVYYCARWGLRRDGFTYWGQGTSVTVSS VL: QIVLTQSPASLAVSLGQRATISCRASQSVSTSSYNYIHWYQQKPGQPPKLLIKYASNLESGVPARFSGSGSGTDFTLNIHPVEEDDTATYYCQHTWEIPYTFGSGTKLEIKR
no binding (tested: 500 nM)				< 0.124	< 2.89e-05	233000	< 0.109	< 2.89e-05	265000	< 0.12	< 2.89e-05	240000	I23RB92 (antibody, mouse IgG2a, kappa, V domains shown, mouse immunization; mouse IgG2a/kappa) VH: EVQLQQSGPEVVKPGASVKISCKASGYTFTDHTMDWVKQSHGKNLEWIGYIYPKSGGTGYNQKFKNKATLTVDKSSSTAYMEFHSLTSDDSAVYYCARWGLRRDGFVYWGQGTLVTVSA VL: DIKMTQSPASLAVSLGQRATISCRASQSVSTSKYDYIHWYQQKSGQPPRLLIKYASNLESGVPARFSGSGSGTDFTLNIHPVEEEDTATYYCQHTWEIPYTFGSGTKLELKR
no binding (tested: 500 nM)				1	0.000686	685000	0.8	0.00063	787000	1.15	0.000753	656000	I23RB94 (antibody, mouse IgG2a, kappa, V domains shown, mouse immunization; mouse IgG2a/kappa) VH: DVQLQESGPELKKPGETVKISCKASGYTFTNYGMNWVRQAPGKSLKWMGWINTNTGEPAYAEEFKGRFAFSLETSASTAYLQINNLKNEDMATYFCARVRQTARATRGYFDVWGTGTTVTVSS VL: DIVMTQSHKFMSTSVGDRVSITCKASQDVNTAVAWYQQKPGQSPKLLIYSAFYRYPGVPDRFTGSGSGTDFTFTINSVQAEDLAVYCCQQHYTSPLTFGDGTRLEIKR

— patent US20250179196A1 (Janssen / Centocor, published 2025)
